Data as given in the DeepSol protein solubility set.

Assay: soluble on expression in E. coli; label from the status in PepcDB or PDB records

Row | Sequence | soluble on expression in E. coli
1 | MAHHHHHHSLNVLKDKLSGKNVKIVLPEGEDERVLTAATQLQATDYVTPIVLGDETKVQSLAQKLDLDISNIELINPATSELKAELVQSFVERRKGKATEEQAQELLNNVNYFGTMLVYAGKADGLVSGAAHSTGDTVRPALQIIKTKPGVSRTSGIFFMIKGDEQYIFGDCAINPELDSQGLAEIAVESAKSALSFGMDPKVAMLSFSTKGSAKSDDVTKVQEAVKLAQQKAEEEKLEAIIDGEFQFDAAIVPGVAEKKAPGAKLQGDANVFVFPSLEAGNIGYKIAQRLGGYDAVGPVLQGLNSPVNDLSRGCSIEDVYNLSIITAAQALQEG | soluble
2 | MSLTSPKRNIVGFTIVNDKHEFAQRLINAFKAEAKANKYEALVATSQNSRISEREQILEFVHLKVDAIFITTLDDVYIGSAIEEAKKAGIPVFAIDRMIRSDAVVSSITSNNQMIGEQLASYIKNELIKQTGRSTGRIVEITGTANVYTTNERHRGFLKGIENEPTLSIVDSVSGNYDPVTSERVMRQVIDSGIPFDAVYCHNDDIAMGVLEALKKAKISGKIVVGIDGNRAILEAVDMKSMDATVVQSAEEMMKVAFSALKLHTKNKKIPDRFYTYSYLYDGSREGHHHHHH | soluble
3 | MGSSGGGGSGGGGVTADIGTGLADALTAPLDHKDKGLKSLTLEDSISQNGTLTLSAQGAEKTYGNGDSLNTGKLKNDKVSRFDFIRQIEVDGQLITLESGEFQVYKQSHSALTALQTEQEQDPEHSEKMVAKRRFRIGDIAGEHTSFDKLPKDVMATYRGTAFGSDDAGGKLTYTIDFAAKQGHGKIEHLKSPELNVDLAVAYIKPDEKHHAVISGSVLYNQDEKGSYSLGIFGEKAQEVAGSAEVETANGIHHIGLAAKQ | soluble
4 | MLIAITGTPGVGKTTVAKLLAKKLNYEYVSLKDFALEKGCGRRVNDEVEVEIDELAYFIERELKGKNAVLDGHLSHLMPVDLVVVLRAHPKLIGERLRERGYDREKIGENVEAELVDAVLIEAIEEHENVIEVDTTNKSPEDVVEEIVSLINSGIKKRVGIVDWSEVYDEIIPYLRLGGELEHHHHHH | soluble
5 | MELPLDKIKLPPGFSISVWANVPDARTMTLGDKGTVFVGSKSAGNVYAITENAGKRQIRIIASKLKMPNGVAFHDGALYVSSVNRILRFDNIENTLDQPLPPRIITADYPKETYHGWRFIAFGPDGWLYVPVGSSCNVCETDLEHYALISRIRPDGSNYEVFAKGVRNTEGFDWHPVTKALWFTDISREWMGDNLPPDELNHASNQGLDFGFPYCHGKEVSDPKLGAKRDCNKFIPPAVELDPHVAPMGMRFYTGTMFPAEYHNGIFIAEHGSWNRSTKIGYRLEWVQLEVNEVARKEIFAEGWLQENEAWGRPVDVLVMPDGALLVSDDMAGVVYRISYDQPLEHHHHHH | soluble
6 | MSPKSVVITGANRGIGLGLVQEFVKDKNIRHIIATARDVEKATDLKAISDPRVTALQLEVTCDKSMDTFVSKVEEIVGSDGLNLLVNNAGNAVDYPCKAKPNRALFAEQLNVNTTSVVILTQKLMPLLIKASSKVSGDQLSASRAAVVTISSGLASMTDFATGGHAPNAFAYRISKAAINMFGRALANDMKDDHILVASIGPGWVKTDMGGEKALLTVEQSTAELVASFNKLNNSHNGGFFQKDLTPYPF | not soluble
7 | MIEPGVNYADLFAKEVRKHPKKYPKTVRLAIDRWYRWKKRKDIWFDVDRANEMMDWVESFIVHTKGDMVGKPFLLEPWEKFIYSWIYGWVKENEKGQVVRVTREAYVQIPKKNGKTLIAVGALGYAMYGEGALSVDCYACASDFAQAQYAAKPFAATILNNPVLLDGTKIFKGPKGTVSSITYDYLHGDMAYTNKFIVQTKNIDNIEGSNPYFVLNDELHKQEKMEQYDNFKSAQISLPQPLMFNISTAGKGSSSVGIRVYKEAKEVLKRDDNDSNFVLIYEPNKGYDWTDRKVWEMCNPNWGISVDLSALESAFKTAQRSAHSKAEFLTKHLDVFVNGADNFFEQDQVEPCLVPTNELGNLSGEPCWIGLDLSKSRDLTCVSLNFPTWDAEGKAILKVKQLYFIPSENIDFREKEDNVPYSELAEQGFVEFCDGKLIDQEQIFHFIEDCMDFYDVQQVNYDPAMSDRLVEKLENLGLECVQVDQYARVLNSPLEDAERLFYEQRIMFDNPLFLYCALNVVVKMDFQGRKVPSKNQSKRKIDGFVAFLCAHKETMDQMIDVNEDDMDEYLDSIYR | not soluble
8 | MATSMIQRLFKQGTKIVGVGLNYASHAKELGNALPKDPIVFLKPTSSYLENGGTIEIPHPLDSLHHEVELAVVIGQKARDVPERLAMNYIGGYALALDMTARELQVSAMASGLPCTLAKGQDTFTPISSVLPKAMVLDPNNLELWLKVDDETRQKGWTKDMIFKVPYLISYISSVMTLFKGDVILTGTPEGIGPVKIGQKITAGITGLSEVQFDVGRRLKPLLR | soluble
9 | QVQLLESGPELVEPGASVKVSCKASAYSITDFNIYWVKQSHGKNLEWIGGIDPHNGGPVYNQKFNGKATLTVDKSSSTAFMHLNSLTSEDSAVYYCAIFYGNFFDYWGPGTTVTVSSASTKGPSVFPLAPSSKSTSGGTAALGCLVKDYFPEPVTVSWNSGALTSGVHTFPAVLQSSGLYSLSSVVTVPSSSLGTQTYICNVNHKPSNTKVDKKVEPKSCDKTHT | soluble
10 | MGSDKIHHHHHHMKLITFVCAAFLCLPSLAQEKFPDGTPVSDWFKDSKIVDINTLGKKYILTDYGVINDSTLLQTEKIQSAIDAAAQNGGGVIVIPKGTYLSGALFFKPKTHLHLEEGAVLKGSDDISNFPIIDTRMEGQSLKYFAALVNADKVDGFTLSGKGTIDGNGLRYWKSFWLRRKVNPQCTNMDELRPRLVHISHSNNVQLSGVRLINSPFWTTHLYKCNHIKLLNLYIFSPEKPVKAPSTDAIDIDVCSNVLVKNCYMSVNDDAIALKGGKGPWADQDPNNGGNFNIIIEDCTYGFCHGALTCGSESIHNRNIILRRIHITNANRLLWLKMRPDTPQQYEYILVEDITGDADHFLYIKPWTQFFDLKDRKDIPVSYSNHVTMRNIDFKCDNFFSVEKSDQYQLTNFTFENLNIKAKNGECDKEMIDNFIWKKVSINNIK | not soluble
11 | MSILNDYKRKTEGSVFWAQRARSVMPDGVTADTRAFDPHGLFISDAQGVHKTDVDGNVYLDFFGGHGALVLGHGHPRVNAAIAEALSHGVQYAASHPLEVRWAERIVAAFPSIRKLRFTGSGTETTLLALRVARAFTGRRMILRFEGHYHGWHDFSASGYNSHFDGQPAPGVLPETTANTLLIRPDDIEGMREVFANHGSDIAAFIAEPVGSHFGVTPVSDSFLREGAELARQYGALFILDEVISGFRVGNHGMQALLDVQPDLTCLAKASAGGLPGGILGGREDVMGVLSRGSDRKVLHQGTFTGNPITAAAAIAAIDTILEDDVCAKINDLGQFAREAMNHLFARKGLNWLAYGRFSGFHLMPGLPPNTTDTGSITRAEVARPDVKMIAAMRMALILEGVDIGGRGSVFLSAQHEREHVEHLVTTFDRVLDRLADENLLSWQGTNLSGNQS | soluble
12 | MSLSVKILFKNATVFPITSRPFKGDVLVSNGKVEKVGENIEDPDAEIVDLTGKFLFPGFVDAHSHIGLFEEGVGYYYSDGNEATDPVTPHVKALDGFNPQDPAIERALAGGVTSVMIVPGSANPVGGQGSVIKFRSIIVEECIVKDPAGLKMAFGENPKRVYGERKQTPSTRMGTAGVIRDYFTKVKNYMKKKELAQKEGKEFTETDLKMEVGEMVLRKKIPARMHAHRADDILTAIRIAEEFGFNLVIEHGTEAYKISKVLAEKKIPVVVGPLLTFRTKLELKDLTMETIAKLLKDGVLIALMCDHPVIPLEFATVQAATAMRYGAKEEDLLKILTVNPAKILGLEDRIGSIEPGKDADLVVWSGHPFDMKSVVERVYIDGVEVFRREGHHHHHH | soluble
13 | MAHHHHHHMKEYLAQKEYRAKEYRAKDYPAKDYSGKKEYTSKKAYTPKKEYTAIRGCAVENAYFDEKAYTGCKANQGEEAHKNDASVVEGGKSKKNEERVLAGMIKILEEMKESDDASNAVDPGFN | not soluble
14 | GHMTWEHNEFMQMTVKPFLIPADKVAHVQPGNYLDHALLVLTKTGYSAIPVLDTSYKLHGLISMTMMMDAILGLERIEFERLETMKVEEVMNRNIPRLRLDDSLMKAVGLIVNHPFVCVENDDGYFAGIFTRREVLKQLNKQLHRPNGGRKLGRKEAEQ | soluble
15 | MALAVRKQLLYELIDRLDETDHQTAYDFLMYLLDRSRKERMVWERIDETDEEEALTEEERQQLQSDEGYITGGEAKREFGLQVDLP | not soluble
16 | MAHHHHHHMKEKYTITPLARRTPNGVLTQVLTEARREAAERLRGMQEMKFTICTDIEEVLFKGRVHVNEMRLNDFLTREPDGRGVVDTNRDVLLEEFFKDPTKYIRDKGALNEIQAFGHYLSMKRAVKGEVIFDEDIRELCDRVSTTYRGGHWLLRR | not soluble
17 | TVQTQDKVTAMDKDPKVTVDVTGYQWNWKFGYAKVAGELSPTGSDYVGTDEKRQEAAEKTKFDQGGDNPNPINGRSKTDTSYLHFNKIETLGTSEEIPV | not soluble
18 | MAKKKTKFTCQECGYQSPKYMGKCPGCGQWNSLVEEMEPVVSSRRLNYANAIQTEVTKPRRLTEVETKSEARIETKFQEFNRVLGGGIVDGSLVLIGGDPGIGKSTLLLQISSQLADASYDVLYISGEESAKQIKLRADRLHVNGSNLFVVSETDLQRIAAHIEEMNPAFVVIDSIQTIHLPEVTSAPGSVAQVRECTAELMKLAKTKGIPIFIVGHVTKEGAIAGPRMLEHMVDAVLYFEGDRHHTYRILRAVKNRFGSTNEMGIFEMKELGLAEVLNPSEIFLEERPVGVAGSTVVASMEGTRPVLVEIQALISPTSFGNPRRMATGIDHNRVSLIMAVLEKRTGLLLQNQDAYLKVAGGLKLDEPAIDLAVALSIASSFRDKSTAPTDAVIGEVGLTGEIRRVSRIEQRVQEAAKLGFQRAIIPRKNLGGWTIPEGIEVVGVSNLGEALRLTLGG | not soluble
19 | GPGSMQEEVTEHKYNIVFSRDPVPSGLSEEQYYPMRLSNGSAYLCVLPDITVEEKKTLQAEDSELDVPLSLEHVAVVNRALKNMCYTMEESWWTYRLCWGSGVEQFHRSAVAGDSKSNAPKQMKEDPHFVLGVAPPADVLDLRYGVNTKGLRYIYTIYSDGLTCDLTQLPRTTEVQLYCAREGEGNSPTMRVREAEVCRYIVSLTAKEVCLLGLKEIQQRYGVITCHETKPTNTVDWNNKQQG | not soluble
20 | MQPNDITFYQRFEADILAGHKTISIRDDSESHFKAGDILRVGRFEDNQYFCNIEVLSVSPITLDELTQPHAKQENMGLDELKEVIRGIYPNEIIFWVIQFSLKEYFNEEKCVREIIITDRKFN | soluble
21 | MPISEDLKQAIRQRARYICEYCHSPERLSANRFTIDHVIPKSLGGSDAFNNLALACRRCNERRYNFVASIDPQTKTIVAIFNPRQQNWAEHFIWTNRGIIIQGTTTTGRATCIRLDLNDTRYPEEDSIQETRRFWLKTGLHPPIDDPCKNLEHHHHHH | soluble
22 | MGSDKIHHHHHHMASKATSIDIAYRAGVSQSTVSRALRNSPLVNLETRQRIQAIAKELNYKVDKNASNLRMQNSHTLALLICEDPTNDESMINPFFLSMLGSITRATARQGYDLLVSFQQLSTDWHADYEDSNKADGIILLGYGDYMDYAHKLDKLIEKNTHFVIWGAEHNNKAVLSIGCDNHQGGFVATEHLLGLGHKHIAFLGDSSSRSPEFRDRYLGHVDALQSTGIEADTQLQHDAINTEASGYHAANVLLDSGVTFDAIFTASDLIAIGAIRALKKRGVLVPEQVAVVGYDDIPVASFANPALTTIKQDTQFAGEILVESVLKLIRGQEVSQRLIKTHLVVRSSCGANVEDN | not soluble
